Values joined by “and” are separate entries in the source; they are usually repeats but may differ in a detail not shown here. Equal entries are not always repeated.
Conditions: Escherichia coli (strain K12), pH 7.8, Urea, CD, Potassium phosphate 10 mM, whole UniProt chain shown

B1: Tryptophan synthase alpha chain wild type, P0A877 (protein)
chain: MERYESLFAQLKERKEGAFVPFVTLGDPGIEQSLKIIDTLIEAGADALELGIPFSDPLADGPTIQNATLRAFAAGVTPAQCFEMLALIRQKHPTIPIGLLMYANLVFNKGIDEFYAQCEKVGVDSVLVADVPVEESAPFRQAALRHNVAPIFICPPNADDDLLRQIASYGRGYTYLLSRAGVTGAENRAALPLNHLVAKLKEYNAAPPLQGFGISAPDQVKAAIDAGAAGAISGSAIVKIIEQHINEPEKMLAALKVFVQPMKAATRS
denaturant m value (4 °C): 3.1 kcal/mol/M and 1.9 kcal/mol/M | denaturant midpoint (higher = more stable) (4 °C): 1.63 M and 3.17 M | unfolding free energy (4 °C): 5 kcal/mol and 6 kcal/mol | denaturant m value (25 °C): 1.2 kcal/mol/M | denaturant midpoint (higher = more stable) (25 °C): 4.18 M | unfolding free energy (25 °C): 5 kcal/mol

From FireProtDB (doi:10.1021/bi00458a027)
